In the nanobody polyreactivity screen of Harvey et al. (2022):

Test: yeast display, Sf9 membrane polyspecificity reagent, FACS + sequencing; frameworks hold sequencing errors
Summary of the method: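 Genes from sorted yeast were amplified by colony PCR, read by MiSeq 2 × 250 sequencing and filtered on CDR length. These cells carried a synthetic nanobody library in Saccharomyces cerevisiae BJ5465 and were sorted by FACS into low and high (top ~1%) gates on anti-HA and streptavidin fluorescence. Polyreactivity is labelled according to the gate of origin.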

Sequence	polyreactivity (PSR sort gate)
QVQLVDSGGGLVQAGGSLRLSCAASGGTISSYAMGWYRQAPGKERELVADITRRGGSTYYADSVKGRFTISRDNAKNTVYLQMNSLKPEDTAVYYCAAEWFRQGHRGLDYWGQGTQVTVSS	high polyreactivity
QVQLVDSGGGLVQAGGSLRLSCAASGIIFPVYAMGWYRQAPGKERELVAAITYSGDRTYYADSVKGRFTISRDNAKNTVYLQMNSLKPEDSAVYYCNARFGVWPYFYNEDDYWGQGTQVTVSS	low polyreactivity
QVQLVDSGGGLVQAGGSLRLSCAASGIILVNNAMGWYRQAPGKEREFVAAIRYSAGSTYYADSVKGRFTISRDNAKTTVYLQMNSLKPEDTAVYYCNAVRYPTRGYYPYRYGYWGQGTQVNVSS	high polyreactivity
QVQLVDSGGGLVQAGGSLRLSCAASGITFGRYAMGWYRQAPGKERELVATITVNGGRTYYADSVKGRFTISRDNAKNTVYLQMNSLKPEDTAVYYCAAESAVDFDYWGQGTQVTVSS	low polyreactivity
QVQLVDSGGGLVQAGGSLRLSCAASGITFNLNVMGWYRQAPGKERELVAAISRSGGRTYYADSVKGRFTISRDNAKNTVYLQMNSLKPEDTAVYYCDALSDRSSVPGDYWGQGTQVTVSS	high polyreactivity
QVQLVDSGGGLVQAGGSLRLSCAASGRIFELYAMGWNTQATGKDRELVAVITNGGSTYYADSVKGRFTISRDNAKNTVYLQLNSLKPEDTAVYYCNGRRGYNRVGGSYGYWGQGTQVTVSS	low polyreactivity
QVQLVDSGGGLVQAGGSLRLSCAASGRIFGVNAMGWYRQAPGKERELVAAINFSGGGTYYADSVKGRFTISRDNAKNTVYLQMNSLKPEDTAVYYCAADGPDYKWYYELDYWGQGTQVTVSS	low polyreactivity
QVQLVDSGGGLVQAGGSLRLSCAASGRIFSENAMVWYRQSRGKERELVAAITANGGDTYYADSVKGRFTISRDNAKNTVYLQMNSLKPEDTAVYYCAAETGGLGGDYWGQGTQVTVSS	low polyreactivity
QVQLVDSGGGLVQAGGSLRLSCAASGRIFYQYAMGWYRQAPGKERELVAGISKRGGSTYYADSVKGRFTISRDNAKNTVYLQMNSLKPEDTAVYYCARGGYPGSAEYDYWGQATQVTVSS	high polyreactivity
QVQLVDSGGGLVQAGGSLRLSCAASGRILSTYPMGWYRPAPGKERELVAAITRTSGSTYYADSVKGRFTISRDNAKNTVFLQMNSLKPEDTEVYYCAADTWLITWSGQYNSWGQGTQVTVSS	low polyreactivity
QVQLVDSGGGLVQAGGSLRLSCAASGRTFDNYAMGWYRQAPGKERELVAAISSSGGRTYYADSVKGRFTISRDNAKNTVYLQMNSLKPEDTAVYYCAAVWPVYRTHPGMDYWGHGTQVTVSS	high polyreactivity
QVQLVDSGGGLVQAGGSLRLSCAASGRTFDVYTMGWYRQAPGKERELVAAINGGGSTYYADSVKGRFTISRDNAKNTVYLQMNTLKPEDTAVYYCAAKLRAGRSSYYWGQGTQVTVSS	high polyreactivity
QVQLVDSGGGLVQAGGSLRLSCAASGRTFGYNAMGCYRQATGKERELVAAISSSGGSTYYADSVKGRFTISRDYAKNTVYLQMNSLKPEDTAVYYCATQGYSWAHGSDFWGQGTQVTVSS	low polyreactivity
QVQLVDSGGGLVQAGGSLRLSCAASGRTFGYYAMGWYRQAPGKERELVAAISWRGTSTYYADSVKGRFTISRDNAKNTVYLQMNSLKPEDTAVYYCAVGRTVAHRFIAGDYWGQGTQVTVSS	high polyreactivity
QVQLVDSGGGLVQAGGSLRLSCAASGRTFYFNAMGWYRQAPGKERELVAAITSSDSTYYADSVKGRFTISRDNAKNTVYLQMISLKPEDTAVYYCNADYFYWREMDYWGQGTQVTVSS	low polyreactivity
QVQLVDSGGGLVQAGGSLRLSCAASGRTFYRNAMGWYRQAPGKVRELVAGISSGGFTYYADSVKGRFTITRDNAKNTFYLQMNSLKPEDTPVYYCAASAWSGYWFDYWGQGTQVTVSS	high polyreactivity
QVQLVDSGGGLVQAGGSLRLSCAASGRTFYTNAMGWYRQAPRKERQLVAAITRGGSTYYADSVKGRFTISRDNAKNTVYLQMNSLKPEDTAVYYCAADGRFRSHTFYYWGQGTQVTVSS	high polyreactivity
QVQLVDSGGGLVQAGGSLRLSCAASGRTIGGNAMGWSRQAPGKERELVAGINISGGSTNYADSVKGRFTISRDNAKNTVYLQMNSLKPEDTAVYYCNADTAVYAWDDDYWGQGTQVTVSS	low polyreactivity
QVQLVDSGGGLVQAGGSLRLSCAASGRTILINAMGWDRQAPGKERELVAGITRNGGTTYYADSVKGRFTISRDNAKNTVYLQMNSLKPEDTAVYYCAKRYPSWFNYWGQGTQVTVSS	high polyreactivity
QVQLVDSGGGLVQAGGSLRLSCAASGSIFDPNAMGWYRQAPGKERELVADIDSSDGSTYYADSVKGRFTISRDNAKNTVYLQMNSLKPEDTAVYYCNALSALAVEDGYWGQGTQVTVSS	low polyreactivity
QVQLVDSGGGLVQAGGSLRLSCAASGSIFDSYVKGWYRQAPGKERELVAAITYSGGSTYADSVKGRFTISRDNAKNTVYLQMNSLKPEDTAVYYCAAASYFYMFLLEDYWGQGTHVTVSS	low polyreactivity
QVQLVDSGGGLVQAGGSLRLSCAASGSIFEGYVMGWYRQAPGKERELVAAITTGGGSTYYADSVKGRFTISRDNAKNTVDLPMNSLKPEDTAVYYCAKDYWFGYEYWGQGTQVTVSS	low polyreactivity

Sequence	polyreactivity (PSR sort gate)
QVQLVDSGGGLVQAGGSLRLSCAASGSIFGYYTMGWYRQAPGKERELVAAITSGGSTKYADSVKGRITISRDNAKNTVYLQMNCLKPEDTAVYYCAKVSYYPWRYDYWGPGTQVTVSS	low polyreactivity
QVQLVDSGGGLVQAGGSLRLSCAASGSIFKFYTMGWYRQAPGKERQLVAAISSSDGSTHYADSVKGRFTISRDNAKNTVYLQMNSLKPEDTAVYYCARRRYSRYSVTRGNYWGQGTQVTVSS	high polyreactivity
QVQLVDSGGGLVQAGGSLRLSCAASGSIFLAYAMGWYRQAPGKEREFVAAISFSDGSTYYADSVKGRFTISRDNAKNTVYLQMNSLKPEDTAVYYCNKGASPDDYDFWGQGTQVTVSS	low polyreactivity
QVQLVDSGGGLVQAGGSLRLSCAASGSIFRGYAMGWYRQAPGKERELVAAIRRRAGTTYYADSVKARFTISRDNAKNTVYLQMNSLKPEDTAVYYCAVERYHSGDDYLGQGTQVTVSS	high polyreactivity
QVQLVDSGGGLVQAGGSLRLSCAASGSIFYVYAMGWYRQAPGKERELVAAISWTGGSTDYADSVKGRFTISRDNAKNTVYLHMNSLKPEDTAVYYCATELGYGDWYNYWGQGTQVTVSS	low polyreactivity
QVQLVDSGGGLVQAGGSLRLSCAASGSIIFYNAMGWYRQAPGKERELVAAISRGGNTNYADSVKGRFTISRDNAKNNFYLQMNSLKSEDTAVYYCNADLVQYWGRRRWYDYWGQGTQVTVSS	low polyreactivity
QVQLVDSGGGLVQAGGSLRLSCAASGSIIGVNAMGWYRQAPGKERELVAAISWSGSSTRYADSVKGRFTISRDNAKNTVYLQMNSLKPEDTAVYYCAAEAQTKWWDYYYWGQGTQVTVSS	high polyreactivity
QVQLVDSGGGLVQAGGSLRLSCAASGSIVVLYAMGWYRQAPGKERELVAAITSGASTNYADSVKGRFTISRDNAKNTVYLQMNSLKPEDTAVYYCHTGSRLDRVDSWGQGTQVTVSS	low polyreactivity
QVQLVDSGGGLVQAGGSLRLSCAASGSNFTKYAMGWYRQAPGKERELVAAILRSGDRTYYADSVKGRFTISRDNAKNTVYLQMTSMIPEDTAVYYCAAGYSQYWTDPQGFAYDYWGQGTQVTVSS	low polyreactivity
QVQLVDSGGGLVQAGGSLRLSCAASGSNYVDYDMGWYRQAPGKERDLVAALTYSGARTYYADSVKGRFTISRDNAENTVYLQMNSLKPEDTAVYYCNAAGYPYPYRGDYDYWGQGTQVTVSS	low polyreactivity
QVQLVDSGGGLVQAGGSLRLSCAASGSTFKYYGMGWYRQAPGKERELVASISSSGTRTYYADSVKGRFTISRDNAKNTVYLQMNSLKAEDTAVYYCAADSYATYFLYDSWGQGTQVTVSS	low polyreactivity
QVQLVDSGGGLVQAGGSLRLSCAASGSTFRRNAMGWYRHAPGKERELVAAINRRGGDTYYADSVKGRFTISCDNAKNTVYLQMNSLKPEDTAVYYCAAEWQSVAFDWGGYGDDYWGQGTQVTVSS	low polyreactivity
QVQLVDSGGGLVQAGGSLRLSCAASGSTFVYYAMGWYRQAPGKERELVAAITWNGGSTYYADSVKGRFTISRDNAKNTVYLQMNSLKPEDTAVYYCNAEYPVYFEGYPYYWDYWGDSWGQGTQVTVSS	high polyreactivity
QVQLVDSGGGLVQAGGSLRLSCAASGSTIKYYAMGWYRQEPGKERELVAAINWSGDSTYYADSVKGRFTISRDYAKITVYLQKISLKPEDTAVYYCAVRYQKRAYYGSNYWGQGTQVTVSS	high polyreactivity
QVQLVDSGGGLVQAGGSLRLSCAASGSTYGLYAMGWYRQATGKERELVAAITWRASSTYYADSVKGRFTISRDNAKNTVFLQMNSLKPEDTAVYYCAATWYSRFSRGDYDYWGQGTQVTVSS	high polyreactivity
QVQLVDSGGGLVQAGGSLRLSCAASGYTFGNNARAWYRQAPGKERELVARIRTNGGTTYYADSVKGRFTISRDNAKYTVYLQMNSLKPEDTAVYYCNAYRGYEYDYWGQGTQVTVSS	low polyreactivity
QVQLVDSGGGLVQAGGSLRLSCADSGRTFWGYGKGWYRQATGKERELVATISSGGSTYYADSVKGRFTISRDNAKNTVYLQMNSLKPEDTAVYYCAARPPPTYWRYQSDYWGQGTQVTVSS	high polyreactivity
QVQLVDSGGGLVQAGGSLRLSCADSGSIFGVYAMGWYRQATGKESELVAAISISDGITYYADSVKGRFTISRDNAKNNVYLQMNSLKPEDTAVYYCAAELSPYYYGESYDYWGQGTQVTVSS	high polyreactivity
QVQLVDSGGGLVQAGGSLRLSCAPSGFTIYKYVMGWDRQAPGKDREVVAAITTCGGSTYYADSVKGRFTISRDYAKNTVYLQMNSLKPEHTAVDYCNARSLHTSEGDYWGQGTQVTVSS	low polyreactivity
QVQLVDSGGGLVQAGGSLRLSCGASGFIIARNAMGGYRHPPGKERELVAAISRNGGRTSYADSVKGRFTISRDTAKNTVYLQMNSLNPEDTAVYYCAKAQGYVTWTGAYAYDYWGQGTQVTVSS	high polyreactivity
QVQLVDSGGGLVQAGGSLRLSCSASGITNGRNTMGLYRQAPGKERELVAAIDSGGNTYADSVKGRFTISRDNAKNTVYLQMNSLKPEDTAVYYCAVDGGEFSSYGYWGQGTQVTVSS	low polyreactivity
